Assay results from the supplement of paper PMC12764529.
± gives the half width of the 95% confidence interval.

Assays:
[1] = folding stability dG unfold from trypsin proteolysis; higher = more stable
Procedure: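 Folding stability of de novo designed mini-proteins (<80 aa, no Cys; designed by TrROS, TrMRF, ProteinMPNN and the joint model) was measured by cDNA display proteolysis with trypsin and chymotrypsin. Each protease was used at 11 concentrations in a threefold dilution series plus a no-protease condition. K50 was inferred by Bayesian fitting of sequencing counts, and dG unfold was derived against a sequence-predicted unfolded-state K50 (Tsuboyama et al. method). Sequences shown include variable-length N-terminal GS-type padding (SAGGSAGG...) inside a display construct carrying a PA tag. Rows were kept only if the AF2 dimer inter-PAE was >15, to exclude likely homo-oligomers.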

[2] = folding stability dG unfold (combined trypsin and chymotrypsin); higher = more stable
Procedure, shortened: (§1)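 Designed mini-proteins (under 80 residues, no cysteine) in a PA-tagged cDNA display construct were digested with trypsin and chymotrypsin. Each protease was used at 11 concentrations (threefold dilutions) plus a no-protease condition, followed by sequencing. K50 was inferred by Bayesian fitting of sequencing counts, and unfolding free energy was derived against a sequence-predicted unfolded-state K50 and a shared folded-state K50, per protease or combined. Only designs with AlphaFold2 dimer inter-PAE above 15 were kept.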

[3] = folding stability dG unfold from chymotrypsin proteolysis; higher = more stable
Procedure, shortened: as §1

| Sequence | folding stability dG unfold [1] [kcal/mol] | folding stability dG unfold [2] [kcal/mol] | folding stability dG unfold [3] [kcal/mol] |
| --- | --- | --- | --- |
| EMTVTVKIEIEKTPDSIKIKITVEVNGKKIEEVEITYDKKTKKIYIKVKVKSKEDLDELKKLLEKLGFKVES [r1_455_TrROS_Hall] | 3.81 ± 0.31 | > 6 |  |
| GKVLAVPVSYDPETGTVTVLEVKDTGTTLATLKPLPVVDISREELEKLAKGLAEENPELKELAEKLVEELAS [r1_330_TrMRF] | -0.145 ± 0.075 | -0.197 ± 0.35 |  |
| GMVLVRVELYRPDEEELVAEVEIPFPVPESLLENLSEEEREKLREEAEKAAEKLAEELGDVEVKPEIYTDLS [r1_115_TrMRF] | 0.147 ± 0.095 | -0.317 ± 0.42 |  |
| IKIRFPDGHEITEIDDLSFSGNGYIEINVKVRNPENPQTQPMPIYIPVPPVPPPPVKIERDPGNGKWKYEDS [r1_411_TrROS] | 0.799 ± 0.07 | -0.179 ± 0.33 |  |
| LKITLPGGAEVTEIDDIKVSSDGYIELNVRVRNPDNDVEVPVPVYIPVPPVPPVPVKVSFIPGTGKLVVDDS [r1_411_TrMRF] | 0.0956 ± 0.11 | < -1 |  |
| MKKTIPFPPSHPDLSPEEVAERLRERFLSPEESITVTTDPATGTTTVTATRGNVTTVATLSPAGTVTVTGAS [r1_131_JUSTAS] | -0.0831 ± 0.14 | < -1 |  |
| SAAPTSSGPISLNKPEILTITSVEADPETGTITTPTRVELTEEELDPFNPEIPTFKKKYLDVTLTTPTSSAG [r14_888_JUSTAS] | -0.643 ± 0.45 | < -1 |  |
| SAGDWMMVEMTVDFPPDQITEEEIKQALQEHFGEVEIDWNPGDGRIPITVYMPPGDMNKIQDALKEAGLSAG [r5_378_TrROS] | 0.755 ± 0.053 | 0.218 ± 0.19 |  |
| SAGGALAVKVEFDEEIPTATITYRAPVPGEGGAVDVPADEVAAAIAKALGLPDLEEVTVNVPAPDAPLSAGG [r13_327_JUSTAS] | 0.197 ± 0.075 | -0.543 ± 0.22 |  |
| SAGGAMPKTITVTDPTSSREEAEALLASPERLEAIAEEIKPEFPGVDLTVTVSSDPATGTLTITIVSSAGGS [r16_320_JUSTAS] | 0.289 ± 0.072 | < -1 |  |
| SAGGDILLVIPAELFFDEDGKPSEEAVKAIEKAAELAEKLNKEGKPVKIEVKVVPLLPPVSPSDPYVFSAGG [r13_731_TrMRF] | 0.162 ± 0.055 | -0.358 ± 0.36 |  |
| SAGGELREKIEEAVEEAAKAGKPVVKTSEIEARLGRPLTPELLEYVREKGIIERDPKGSITITLPEDKSAGG [r13_188_JUSTAS] | -0.895 ± 0.91 | < -1 |  |
| SAGGEVKFEKNEDGTITVTVKAESEEEALEALKKLLEEQGFEIEEIKVERLPNGEVKITIKIKPKKPSAGGS [r8_253_TrROS_Hall] | 3.65 ± 0.4 |  |  |
| SAGGFRINIPPNMPKEKLEEIQDEAEEESGMPVTINTNPDDGSLHIEFPGGPEWKQRRIQDEIRELLSAGGS [r16_227_TrROS] | -0.507 ± 0.44 | < -1 |  |
| SAGGFRITPEFLEELLKNMPPGDPNKTITVKVEMPMRYEPRKGGNGQPQYRHEYPMTHEFPITIPPKSAGGS [r16_708_TrROS] | 0.32 ± 0.066 | -0.349 ± 0.19 |  |
| SAGGGEVKKVTYVVVIELPPDPETGEPHPLPLVLEREYPADDPEAVESDIKKALDEIDIPEEAKEALSAGGS [r16_40_TrMRF] | 0.403 ± 0.083 | 0.123 ± 0.32 |  |
| SAGGGMTLTQVSSHQSPNGGVPTTLVTETLFYPETGTAVVLTKVRLPETGEVTTVASTVLPIPPPLLSAGGS [r8_384_JUSTAS] | -0.0612 ± 0.066 | -0.726 ± 0.31 |  |
| SAGGGSHTFKDNGKKIKITVYPPPNGNMRVQLQIYDPDDGKPKPKAIAPFRGGSVEDAIKDLLDAGISAGGS [r16_378_TrROS] | -0.0278 ± 0.19 | -0.625 ± 0.32 |  |
| SAGGGSMVNISKEELAKKIAKELGKDFPTENVKVKKEIYPEPVSIYTITIKVPGTNITLNVPITLPESAGGS [r16_42_JUSTAS] | -0.043 ± 0.098 | -0.226 ± 0.22 |  |
| SAGGGSSMVTTVIPVLRTETLFDENGNVIGPRTTVETIELEAEVPLPPRPPLVFSFVPPELRDPAVLLSAGG [r13_508_JUSTAS] | -0.299 ± 0.24 | < -1 |  |
| SAGGGVSTSTDPNSDTTTTTVPLPNSDSTATSTHNPSTGTSTTTVPTNNTTTTYSPGGTTTATTTLPTSAGG [r13_101_JUSTAS] | 0.465 ± 0.034 | -0.425 ± 0.18 |  |
| SAGGKPDIKDIEIDDVEYDPNEGYFRYEVEIKWPGGKERPIEVPMKYEDGRMTPEDIRKMAKKLIKNSAGGS [r16_221_TrROS] | 0.423 ± 0.15 | < -1 |  |
| SAGGSAGGSAGGKAVFLKTKTVTRTVTRKTTKNGKEEEVATETVTTVELVEVDLDNGEASAGGSAGGSAGGS [r10_93_TrROS_Hall] | -0.708 ± 0.37 |  |  |
| SAGGSAGGSAGGKVTVEKDKETGKYTVKIVNKKTKKEITVTVPAKDKEKALKKAKELAKSAGGSAGGSAGGS [r10_1117_TrROS_Hall] | -0.349 ± 0.35 |  |  |

| Sequence | folding stability dG unfold [1] [kcal/mol] | folding stability dG unfold [2] [kcal/mol] | folding stability dG unfold [3] [kcal/mol] |
| --- | --- | --- | --- |
| SAGGSAGGSAGGMVLKTETRPGFEGGRAWTVTTTVYPDSVVVTTTPPDGVPTTTTIPPSSSAGGSAGGSAGG [r7_516_JUSTAS] | -0.221 ± 0.24 |  |  |
| SAGGSAGGSAGKRKIIFQVDNPEDMLDEIKIPPGGEVKIENIEIQPQPNGRHWAVFEIKDSAGGSAGGSAGG [r11_150_TrROS] | -0.398 ± 0.4 |  |  |
| SAGGSAGGSAGKTIPIDEEEAKALFKAGNPRTITRLLPDGKTETLTYQPETNEVSVLDPKAPSAGGSAGGSA [r18_400_JUSTAS] | -0.795 ± 0.61 |  |  |
| SAGSMKTEEKTEEVPPVTLPFGPSVRVRRVTTTITDPSTGKIKEVTVELFDPAGRRRVDPVKKVPVELLSAG [r14_631_JUSTAS] | 0.794 ± 0.13 |  |  |
| SAGVEYEVKVEYDPETGTVTAPVTFPDGPEAIVEIEFEEPGRYKMIIRIEEEEKEFEVDPDAIDEITIESAG [r5_14_TrMRF] | -0.551 ± 0.25 |  |  |
| SGMTIEVEKEIEIYDPEKGVKIGSVKVKVLVPTSYSPEEIPEIAEKEIKKAKEELEKPEPPEVNEDGTLKSA [r9_454_JUSTAS] |  | 0.241 ± 0.16 | 0.751 ± 0.035 |
| SGMTTPVAEIDNTDGKPEKVKEWIKKTIPKTPPVTVTRTLASGAPSTWTIDPNTGKVTESVPGGHVTVAASA [r9_853_JUSTAS] |  | < -1 | -1.07 ± 0.7 |
| SGMVTLEDIAAAPPGTPVVVTTKKQGSKNLTFIDAVVDGARSSASYPSIEEARKELEAVGYPVEFVDPAESA [r9_1021_JUSTAS] |  | -0.429 ± 0.19 | 0.143 ± 0.066 |
| SIIIPPKESAEEVLNEIKELLPPGRKYKITVFNPENGRMHEADFDPKKGNIEVEPHPFPNGPPFLMIERKSA [r9_1059_TrROS] |  | -0.42 ± 0.49 | -0.387 ± 0.63 |
| SITISPDKVYTLKNVRVGDYEVDGLVAVAGPDGTVYVPADVRPVVVPPPAPPVGLDPVDGGVYDITDPSVSA [r9_603_TrMRF] |  | < -1 | -0.965 ± 0.61 |
| SKPITADEIAKHFPGIKDVEPTPNKKRLDFDNPNGHKPTIEVSPDGTIMIEHQNPDNGQKQEQEIPIDDLSA [r9_427_TrROS] |  | 0.0598 ± 0.26 | 0.596 ± 0.056 |
| SKTIYFPIPNDDPEEAVEWIADKLLEEHGHKIKDVEIPHKNGYYVRIEVDPNNPKIDIEVWPYDPDGEPLSA [r9_173_TrROS] |  | 0.534 ± 0.52 | 0.728 ± 0.18 |
| SKTVVIAADPNNPEAIKKAIEEAPPDTTIVIVVPLENGEYPKVTITRKPPEVPPIPPELLSEEEIKELLPSA [r9_1103_TrMRF] |  | 0.42 ± 0.14 | 0.836 ± 0.053 |
| SMTIKELLKAHPGQPVEDLAKRIMDEMNANFPNGMPIKINLEYDPGGIKVDVEMWNNDKPQTDEFTIRPDSA [r9_805_TrROS] |  | -0.000922 ± 0.15 | 0.327 ± 0.091 |
| SMTLVGTTTLPNATVTTYKNETKYIVLTYDPVEAGEPAAVSYVEKYEGNKVVKKKKVAPEEIEKAIEELLSA [r9_57_JUSTAS] |  | 0.247 ± 0.48 | 0.609 ± 0.32 |
| SMYVFSTGSKPSSEQLLEKLEKVPNLPKELIKKNTIISDTESSPEIVIPKEVYDKIKKENPEAVKVIESGSA [r9_160_JUSTAS] |  | < -1 | -0.991 ± 0.56 |
| SPAPPMRIDNIKPEKEDPNGDERKYRVYWQGPNGRPYHYEGPLEELEDMLDEDNIDPDNFWPGDEITIKVSA [r9_1078_TrROS] |  | 0.421 ± 0.31 | 0.869 ± 0.12 |
| SPVAVVTYEDGSVSEVPFTHPDGRAYDLSRGPGDVATLTVTRLLPDGSLEPLPTVPFTSEAEAEAYLAAASA [r9_942_JUSTAS] |  | -0.231 ± 0.074 | 0.201 ± 0.12 |
| SSSSLLKSSTEEVEVSTTFTKTSPDGSLTPVGTTTEVVTKTVKTVPKEILEKLKKEKEKPLPPEGNLGYLSA [r9_1192_JUSTAS] |  | 0.000763 ± 0.41 | 0.495 ± 0.36 |
| SSTPKLEEIERPNARFKVTTYTYPNSVKTTADATFPDGTKGKIEETYTPTPEGVKKTVKKDLPPEVKEKLES [r1_153_JUSTAS] |  | < -1 | 0.0664 ± 0.46 |
| SSTSMSTEPNRTVTTTTEKGGRSTVTTTTTTTFTASGETTTTTPVTTTTPPPPLGVYKDPAGVTRTRPLLSA [r9_456_JUSTAS] |  | -0.012 ± 0.072 | 0.339 ± 0.079 |
| STRTVPIPIRWDNGRLSPDDIRNAIKKALPPGENVKITEETIQNFWQEWAGKNGKPMTPEDFPIRIEVKKSA [r9_197_TrROS] |  | -0.198 ± 0.27 | 0.0542 ± 0.36 |
| TIKELAKKLGGPITVETEQYPIENPDGNPYYITDIEVQVNPNDGSLRINYEVYNPGNGKKQEEEDTIPLDDS [r1_448_TrROS] |  | < -1 | -0.708 ± 0.42 |
| TLSPEEIEAEARARAEAAVAARPDSAADVELDVPVEFPVRTERRDPRSDRWSRSLSTVRLRLRLRLARGAGS [r1_90_JUSTAS] |  | -0.468 ± 0.24 | 0.343 ± 0.2 |
